Reference: patent US20140322233A1 (Takeda / Millennium, published 2014)

How the values were obtained:
[1] = target: T1, human GCC, full length with myc tag (293-GCC#2 cells) (human, UniProt P25092 24-1073); test: cell-based or functional assay
TOK107-hIg [2] = target: T2, TOK107-hIg (human); test: ELISA on coated TOK107-hIg
T2 construct: Expressed in HEK293 cells; Fc mutated at the CH1 cysteine and at lysine 235 and glycine 237 to alanine; also called hGCC-ECD/hIgG1 Fc; TOK107-hIgG

TOK107-hIg [3] = target: T2, TOK107-hIg; test: ELISA against TOK107-hIg
[4] = target: T3, human guanylyl cyclase C (GCC), full length (human, UniProt P25092 24-1073); test: FACS with GCC-expressing cells (cell line not given)
T3 construct: Full length GCC on transfected HT-29 (clones #2, #5, #18) and CT26 (#2.5, #32) cells and endogenous GCC on T84 cells; also called hGCC; STAR

[5] = target: T3, human guanylyl cyclase C (GCC), full …; test: FACS, HT-29#2 cells (full length GCC transfected)
[6] = target: T3, human guanylyl cyclase C (GCC), full …; test: cell-based or functional assay
[7] = target: T1, human GCC, full length with myc tag …; test: indirect immunofluorescence flow cytometry, 293 GCC #2 cells;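 also: cells exposed to the test antibodies for 1 h on ice before flow cytometric readout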

T2 sequence (chain, as listed by the source limits assumed): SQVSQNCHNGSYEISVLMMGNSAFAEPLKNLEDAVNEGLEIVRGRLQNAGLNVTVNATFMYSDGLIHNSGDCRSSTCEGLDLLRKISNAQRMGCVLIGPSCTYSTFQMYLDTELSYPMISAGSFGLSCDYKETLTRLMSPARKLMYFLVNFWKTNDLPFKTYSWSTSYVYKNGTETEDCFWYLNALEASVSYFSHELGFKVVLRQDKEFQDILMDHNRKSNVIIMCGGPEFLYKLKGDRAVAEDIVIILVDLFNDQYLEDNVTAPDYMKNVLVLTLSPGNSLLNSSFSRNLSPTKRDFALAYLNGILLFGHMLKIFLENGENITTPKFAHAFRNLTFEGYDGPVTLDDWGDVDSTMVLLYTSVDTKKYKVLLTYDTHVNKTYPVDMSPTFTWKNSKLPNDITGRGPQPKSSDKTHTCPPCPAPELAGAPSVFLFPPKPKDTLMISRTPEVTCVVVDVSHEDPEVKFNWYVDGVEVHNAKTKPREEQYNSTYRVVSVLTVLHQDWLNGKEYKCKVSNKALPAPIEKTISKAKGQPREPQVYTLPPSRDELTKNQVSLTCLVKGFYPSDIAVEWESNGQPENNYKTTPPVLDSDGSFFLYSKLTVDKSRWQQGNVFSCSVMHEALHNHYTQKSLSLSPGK
T3 sequence (P25092 24-1073 limits assumed): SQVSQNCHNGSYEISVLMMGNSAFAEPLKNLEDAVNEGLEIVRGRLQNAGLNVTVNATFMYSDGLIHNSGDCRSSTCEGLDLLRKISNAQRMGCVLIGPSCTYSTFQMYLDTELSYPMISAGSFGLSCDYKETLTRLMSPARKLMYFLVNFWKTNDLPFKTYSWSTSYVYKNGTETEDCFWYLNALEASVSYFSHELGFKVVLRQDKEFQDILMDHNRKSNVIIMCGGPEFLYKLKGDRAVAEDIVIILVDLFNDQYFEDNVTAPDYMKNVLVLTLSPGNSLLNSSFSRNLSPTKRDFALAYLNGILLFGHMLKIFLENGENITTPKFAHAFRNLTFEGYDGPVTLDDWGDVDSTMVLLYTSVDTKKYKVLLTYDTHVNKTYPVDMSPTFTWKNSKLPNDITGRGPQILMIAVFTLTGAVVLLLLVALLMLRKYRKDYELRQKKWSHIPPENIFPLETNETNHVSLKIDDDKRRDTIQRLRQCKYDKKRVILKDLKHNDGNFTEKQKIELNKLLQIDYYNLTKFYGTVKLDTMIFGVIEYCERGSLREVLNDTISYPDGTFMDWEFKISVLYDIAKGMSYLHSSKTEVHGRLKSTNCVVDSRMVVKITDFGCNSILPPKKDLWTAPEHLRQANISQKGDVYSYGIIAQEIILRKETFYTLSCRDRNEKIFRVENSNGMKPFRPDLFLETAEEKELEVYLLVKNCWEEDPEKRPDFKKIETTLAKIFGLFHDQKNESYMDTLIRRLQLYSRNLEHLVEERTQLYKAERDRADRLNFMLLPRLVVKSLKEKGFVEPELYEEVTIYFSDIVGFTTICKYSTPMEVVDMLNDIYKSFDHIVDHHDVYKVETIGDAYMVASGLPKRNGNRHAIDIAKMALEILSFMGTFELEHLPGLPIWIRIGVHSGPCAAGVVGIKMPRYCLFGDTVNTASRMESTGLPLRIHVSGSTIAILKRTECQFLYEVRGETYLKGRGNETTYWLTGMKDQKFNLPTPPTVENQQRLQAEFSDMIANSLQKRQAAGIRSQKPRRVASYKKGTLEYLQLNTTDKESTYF
T1 sequence (P25092 24-1073): as the sequence (P25092 24-1073 limits assumed) above

B1: mAb Abx-106 (antibody, IgG1, V domains shown)
VH: QVQLQESGPGLVKPSETLSLTCTVSGASISHYYWSWIRQPAGKGLEWIGRIYISGRTSYNPSLKSRVTVSVDTSKNQFSLKLSSVTAADTAVYYCARDRLTGYFDYWGQGTLVTVSS
VL: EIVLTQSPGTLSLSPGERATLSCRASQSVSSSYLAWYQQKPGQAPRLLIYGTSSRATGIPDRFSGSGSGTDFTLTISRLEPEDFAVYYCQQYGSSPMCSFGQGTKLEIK
For B1, the “LD50, indirect cytotoxicity with DM1-conjugated mouse anti-human IgG, 293-GCC#2 cells, WST after 4 days” value (“LD50, indirect cytotoxicity” below) [1] was 166 pM and the binding result (TOK107-hIg [2]) was “binds”.

B2: mAb Abx-012 (antibody, IgG1, V domains shown)
VH: QVQLQESGPGLVKPSETLSLTCTVSGASISHYYWSWIRQPAGKGLEWIGRIYISGRTSYNPSLKSRVTVSVDTSKNQFSLKLSSVTAADTAVYYCARDRLTGYFDYWGQGTLVTVSS
VL: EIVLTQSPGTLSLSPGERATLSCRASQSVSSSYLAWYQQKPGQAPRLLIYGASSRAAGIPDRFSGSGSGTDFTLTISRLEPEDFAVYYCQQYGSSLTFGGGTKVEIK
notes: also called Abx-12
B2 was tested, and the “LD50, indirect cytotoxicity” value [1] was 279 pM and the EC50 (TOK107-hIg [3]) was 0.555 nM.

B3: mAb Abx-338 (antibody, IgG1, V domains shown)
VH: QVQLQESGPGLVKPSETLSLTCTVSGGSIRSYYWSWIRQPAGKGLEWIGRIYISGRTTFNPSLKSRVTISVDTSKNQFSLKLSSVTAADTAVYFCARDRYYGYLDYWGQGTLVTVSS
VL: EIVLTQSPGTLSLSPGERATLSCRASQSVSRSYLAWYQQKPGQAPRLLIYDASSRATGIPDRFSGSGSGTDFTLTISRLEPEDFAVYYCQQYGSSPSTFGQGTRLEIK
B3 was tested, and the “LD50, indirect cytotoxicity” value [1] was 267 pM, the EC50 (TOK107-hIg [3]) was 0.0049 nM and the EC50 [4] was 90 nM.

B4: mAb Abx-393 (antibody, IgG1, V domains shown)
VH: QVQLQESGPGLVKPSETLSLTCTVSGGSIRHYYWSWIRQPPGKGLEWIGYIYYSGSTNYNLSLKSRVTISRDTSKNQVSLKLSSVTAADTAVYYCAAGMGFDYWGQGTLVTVSS
VL: DIQMTQSPSSLSASIGDRVTITCRASQAIRNDLGWYQLKPGKAPKRLIYSASSLQSGVPSRFSGSGSGTEFTLTISSLQPEDSATYYCLQHNSFPPTFGQGTKVEIK
In the case of B4, the “LD50, indirect cytotoxicity” value [1] is reported as > 5400 pM and the binding result (TOK107-hIg [2]) is reported as “binds”.

B5: mAb Abx-221 (antibody, V domains shown)
VH: EVQLLESGGGLVQPGGSLRLSCAASGFTFSRYAMNWVRQAPGKGLEWVSGISGSGGSTYYADSVKGRFTISRDNSKNTLYLQMNSLRAEDTAVYYCAKDRDFWSGPFDYWGQGTLVTVSS
VL: EIVMTPSSATLSVSPGERATLSCRASQSVSRSLAWYQQKPGQAPRLLIYGASTRATGIPARFSGSGSGTEFTLTISSLQSEDVAVYYCQQYNNWMCSFGQGTKLEIK
With B5 the “LD50, indirect cytotoxicity” value [1] was 207 pM and the EC50 (TOK107-hIg [3]) was 6.55 nM.

B6: mAb Abx-229 (antibody, V domains shown)
VH: EVQLLESGGGLVQPGGSLRLSCAASGFTFSRYAMNWVRQAPGKGLEWVSGISGSGGRTYYADSVKGRFTISRDNSKNTLYLQMNSLRAEDTAVYYCAKDRDFWSGPFDYWGQGTLVTVSS
VL: EIVMTPSSATLSVSPGERATLSCRASQSVSRNLAWYQQKPGQAPRLLIYGASTRATGIPARFSGSGSGTEFTLTISSLQSEDFAVYYCHQYSNWMCSFGQGTKLEIK
For B6, the “LD50, indirect cytotoxicity” value [1] was 78 pM and the EC50 (TOK107-hIg [3]) was 29.5 nM.

B7: mAb Abx-020 (antibody, IgG1, V domains shown)
VH: QVQLVESGGGLVKPGGSLRLSCAASGFTFSDYYMSWIRQAPGKGLEWISYITSSGSTIYYSASVKGRFTISRDNAKNSLYLQMNSLRAEDTAVYYCARDFSGWFGVHFDYWGQGTLVTVSS
VL: DIVMTQTPLSLSVTPGQPASISCKSSQSLLHSDGKTYLYWYLQKPGQPPQLLIYEVSNRFSGVPNRFSGSGSGTDFTLKISRVEAEDVGVYYCMQSIQLTWTFGQGTKVEIK
B7 was tested, and the “LD50, indirect cytotoxicity” value [1] was 569 pM and the EC50 (TOK107-hIg [3]) was 4.58 nM.

B8: mAb 8F1 (antibody, IgG1, V domains shown)
VH: QVQLQQPGAELVKPGASVQMSCKASGYIFTGYWMYWVKQRPGQGLEWIGRIHPSDSNTNYNQKFKGKATLTVDKSSSTAYMQLSSLTSEDSAVYYCTHALAYWGQGTLVTVS
VL: DVVLTQTPLTLSITIGQPASISCKSSQSLLYSNGKTYLSWLLQRPGQSPKRLIYLVSQLDSGVPDRFTGSGSGTDFTLKISRVEAEDLGVYYCVQGTHLFTFGSGTKLEIK
B8: binds (TOK107-hIg [2]); binds [5].

B9: mAb 10D3 (antibody, V domains shown)
VH: QVQLQQWGAGLLKPSETLSLTCAVFGGSFSGYYWSWIRQPPGKGLEWIGEINHRGNTNDNPSLKSRVTISVDTSKNQFALKLSSVTAADTAVYYCARERGYTYGNFDHWGQGTLVTVSS
VL: EIVLTQSPGTLSLSPGERATLSCRASQSVSSRYLAWYQQKPGQAPRLLIYGASSRATGTPDRFSGSGSGTDFTLTISRLEPEDFAVYFCQQYERSFTFGPGTKVD
In the case of B9, the “LD50, indirect cytotoxicity” value [1] is reported as 1600 pM and the binding result (TOK107-hIg [2]) is reported as “binds”.

B10: 5F9-mc-MMAF (antibody, V domains shown)
VH: QVQLQQWGAGLLKPSETLSLTCAVFGGSFSGYYWSWIRQPPGKGLEWIGEINHRGNTNDNPSLKSRVTISVDTSKNQFALKLSSVTAADTAVYYCARERGYTYGNFDHWGQGTLVTVSS
VL: EIVMTQSPATLSVSPGERATLSCRASQSVSRNLAWYQQKPGQAPRLLIYGASTRATGIPARFSGSGSGTEFTLTIGSLQSEDFAVYYCQQYKTWPRTFGQGTNVEIK
modifications: mc-MMAF drug-linker on reduced interchain cysteines of the antibody; positions not given
notes: Antibody drug conjugate of 5F9; average loading about four
With B10 the “LD50, direct cytotoxicity, CT 26 GCC #2.5 cells” value (from here on “LD50 … CT 26 GCC #2.5 cells”) [6] was > 10 nM, the “LD50, direct cytotoxicity, CT 26 GCC #32 cells” value (“LD50 … CT 26 GCC #32 cells” below) [6] was 0.064 nM and the “LD50, direct cytotoxicity, HT 29 GCC #2 cells” value (from here on “LD50 … HT 29 GCC #2 cells”) [6] was 3.1 nM. For the same binder, the “LD50, direct cytotoxicity, HT 29 GCC #5 cells” value (from here on “LD50 … HT 29 GCC #5 cells”) [6] was > 10000 nM, the “LD50, direct cytotoxicity, HT 29 GCC #18 cells” value (from here on “LD50 … HT 29 GCC #18 cells”) [6] was > 10 µM and the “LD50, direct cytotoxicity, HT29 GCC#5 cells” value [6] was > 10 nM. The “MFI at 0.001 µg/ml” value [7] was 483, the “MFI at 0.004 µg/ml” value [7] was 776 and the “MFI at 0.016 µg/ml” value [7] was 2110. For the same binder, the “MFI at 0.063 µg/ml” value [7] was 5350, the “MFI at 0.25 µg/ml” value [7] was 7400 and the “MFI at 1 µg/ml” value [7] was 7580.

B11: 5F9-vc-MMAF (antibody, V domains shown)
VH: QVQLQQWGAGLLKPSETLSLTCAVFGGSFSGYYWSWIRQPPGKGLEWIGEINHRGNTNDNPSLKSRVTISVDTSKNQFALKLSSVTAADTAVYYCARERGYTYGNFDHWGQGTLVTVSS
VL: EIVMTQSPATLSVSPGERATLSCRASQSVSRNLAWYQQKPGQAPRLLIYGASTRATGIPARFSGSGSGTEFTLTIGSLQSEDFAVYYCQQYKTWPRTFGQGTNVEIK
modifications: mc-vc-MMAF drug-linker on reduced interchain cysteines of the antibody; positions not given
notes: as for B10
With B11 the “LD50 … CT 26 GCC #2.5 cells” value [6] was > 10 nM, the “LD50 … CT 26 GCC #32 cells” value [6] was 0.004 nM and the “LD50 … HT 29 GCC #2 cells” value [6] was 0.127 nM. The “LD50 … HT 29 GCC #5 cells” value [6] was 563 nM, the “LD50 … HT 29 GCC #18 cells” value [6] was > 10 µM and the “MFI at 0.001 µg/ml” value [7] was 440. For the same binder, the “MFI at 0.004 µg/ml” value [7] was 707, the “MFI at 0.016 µg/ml” value [7] was 1500 and the “MFI at 0.063 µg/ml” value [7] was 4830. For the same binder, the “MFI at 0.25 µg/ml” value [7] was 7560 and the “MFI at 1 µg/ml” value [7] was 7780.

B12: 5F9-vc-MMAE (antibody, V domains shown)
VH: QVQLQQWGAGLLKPSETLSLTCAVFGGSFSGYYWSWIRQPPGKGLEWIGEINHRGNTNDNPSLKSRVTISVDTSKNQFALKLSSVTAADTAVYYCARERGYTYGNFDHWGQGTLVTVSS
VL: EIVMTQSPATLSVSPGERATLSCRASQSVSRNLAWYQQKPGQAPRLLIYGASTRATGIPARFSGSGSGTEFTLTIGSLQSEDFAVYYCQQYKTWPRTFGQGTNVEIK
modifications: mc-vc-MMAE drug-linker on reduced interchain cysteines of the antibody; positions not given
notes: Antibody drug conjugate of 5F9
In the case of B12, the “LD50 … CT 26 GCC #2.5 cells” value [6] is reported as > 500 nM, the “LD50 … CT 26 GCC #32 cells” value [6] is reported as 267 nM and the “LD50 … HT 29 GCC #2 cells” value [6] is reported as 24.1 nM. The “LD50 … HT 29 GCC #5 cells” value [6] was 654 nM, the “LD50 … HT 29 GCC #18 cells” value [6] was 0.555 µM and the “LD50, direct cytotoxicity, HT29 GCC#5 cells” value [6] was 0.59 nM. For the same binder, the “MFI at 0.001 µg/ml” value [7] was 445, the “MFI at 0.004 µg/ml” value [7] was 696 and the “MFI at 0.016 µg/ml” value [7] was 1790. For the same binder, the “MFI at 0.063 µg/ml” value [7] was 4850, the “MFI at 0.25 µg/ml” value [7] was 7300 and the “MFI at 1 µg/ml” value [7] was 7420.

B13: mAb 6H8 (antibody, IgG2, V domains shown)
VH: QVQLVESGGGVVQPGRSLRLSCAASGFTFSSYGMHWVRQAPGKGLEWVAAIWYDGSNKYYADSVKGRFTISRDNSKNTLYLQMNSLRAEDTAVYYCARGRSSSYFDYWGQGTLVTVSS
VL: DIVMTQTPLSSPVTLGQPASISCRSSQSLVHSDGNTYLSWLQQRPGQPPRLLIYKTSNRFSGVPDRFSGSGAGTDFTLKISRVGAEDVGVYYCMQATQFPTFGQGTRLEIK
In the case of B13, the “LD50, indirect cytotoxicity” value [1] is reported as > 4820 pM and the binding result (TOK107-hIg [2]) is reported as “binds”.

B14: mAb 10C10 (antibody, IgG2, V domains shown)
VH: QVQLVESGGGVVQPGRSLRLSCAASGFTFSSYGMHWVRQAPGKGLEWVAAIWYDGSNKYYADSVKGRFTISRDNSKNTLYLQMNSLRAEDTAVYYCARGRSSSYFDYWGQGTLVTVSS
VL: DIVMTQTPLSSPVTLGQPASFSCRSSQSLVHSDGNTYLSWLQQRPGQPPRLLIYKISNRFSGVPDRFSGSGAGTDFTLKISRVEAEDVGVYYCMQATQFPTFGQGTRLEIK
With B14 the “LD50, indirect cytotoxicity” value [1] was 2440 pM.

B15: mAb 8C2 (antibody, IgG2, V domains shown)
VH: QVQLVESGGGVVQPGRSLRLSCVASGFTFSSYGMHWVRQAPGKGLEWVGAIWYDGSNKYYAASVKGRFTISRDNSKNTLYLQMNSLRAEDTAVFYCARGRSSSYFDYWGQGTLVTVSS
VL: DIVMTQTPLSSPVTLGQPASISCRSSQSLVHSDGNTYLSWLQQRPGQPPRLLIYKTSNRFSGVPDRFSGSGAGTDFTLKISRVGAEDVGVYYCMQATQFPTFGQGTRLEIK
In the case of B15, the “LD50, indirect cytotoxicity” value [1] is reported as 2040 pM and the binding result (TOK107-hIg [2]) is reported as “binds”.

B16: mAb Abx-198 (antibody, IgG1, V domains shown)
VH: EVQLLESGGGLVQPGGSLRLSCAASGFTFSSYAMSWVRQAPGKGLDWVSDISGSGGSTYYADSVKGRFTISRDNSKNTLYLQMHSLSAEDTAIYYCAKRRWQGYFDLWGRGTLVTVSS
VL: EIVLTQSPGTLSLSPGERATLSCRARQRVDSRYLAWYQQKPGQAPRLLIYGASSRATGIPDRFSGSGSGTDFTLTISRLEPEDFAVYYCQQYGSSPLTFGGGTKVEIK
For B16, the “LD50, indirect cytotoxicity” value [1] was > 5400 pM and the EC50 (TOK107-hIg [3]) was 47.7 nM.
